Assay [1] concerns the target T1, human complement C3 (human, UniProt P01024 23-1663). Description: cell-based or functional assay.
The target of assay [2] is T1, human complement C3. Briefly: SPR.
The target of a further assay is T2, human C3b (human, UniProt P01024 23-667; P01024 749-1663, limits assumed).
T2 construct: domain: C3b; also called C3 cleavage fragments C3b
Briefly: SPR.

Assay [3] deals with T1, human complement C3. Description: cell-based or functional assay. The source holds these as a separate data set.

Changes are numbered by the printed parent chain.

T2 sequence (P01024 23-667 limits assumed, chain 1 of 2): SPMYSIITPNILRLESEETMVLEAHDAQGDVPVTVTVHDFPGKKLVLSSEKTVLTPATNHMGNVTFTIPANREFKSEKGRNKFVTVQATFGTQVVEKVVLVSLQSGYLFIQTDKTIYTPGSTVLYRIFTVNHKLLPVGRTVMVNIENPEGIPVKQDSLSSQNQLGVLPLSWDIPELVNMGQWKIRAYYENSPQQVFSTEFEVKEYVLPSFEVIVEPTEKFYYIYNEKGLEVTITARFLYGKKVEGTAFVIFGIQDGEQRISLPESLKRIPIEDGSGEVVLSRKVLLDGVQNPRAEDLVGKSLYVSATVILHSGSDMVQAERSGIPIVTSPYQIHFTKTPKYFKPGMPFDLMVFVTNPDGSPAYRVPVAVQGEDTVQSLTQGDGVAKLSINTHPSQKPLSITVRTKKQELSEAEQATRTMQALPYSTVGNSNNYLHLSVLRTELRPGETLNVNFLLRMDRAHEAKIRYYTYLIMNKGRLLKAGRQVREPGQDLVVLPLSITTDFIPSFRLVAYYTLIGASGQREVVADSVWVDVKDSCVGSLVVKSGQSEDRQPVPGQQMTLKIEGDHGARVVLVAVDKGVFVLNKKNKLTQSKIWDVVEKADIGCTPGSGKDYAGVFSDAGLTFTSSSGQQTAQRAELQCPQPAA
T2 sequence (P01024 749-1663 limits assumed, chain 2 of 2): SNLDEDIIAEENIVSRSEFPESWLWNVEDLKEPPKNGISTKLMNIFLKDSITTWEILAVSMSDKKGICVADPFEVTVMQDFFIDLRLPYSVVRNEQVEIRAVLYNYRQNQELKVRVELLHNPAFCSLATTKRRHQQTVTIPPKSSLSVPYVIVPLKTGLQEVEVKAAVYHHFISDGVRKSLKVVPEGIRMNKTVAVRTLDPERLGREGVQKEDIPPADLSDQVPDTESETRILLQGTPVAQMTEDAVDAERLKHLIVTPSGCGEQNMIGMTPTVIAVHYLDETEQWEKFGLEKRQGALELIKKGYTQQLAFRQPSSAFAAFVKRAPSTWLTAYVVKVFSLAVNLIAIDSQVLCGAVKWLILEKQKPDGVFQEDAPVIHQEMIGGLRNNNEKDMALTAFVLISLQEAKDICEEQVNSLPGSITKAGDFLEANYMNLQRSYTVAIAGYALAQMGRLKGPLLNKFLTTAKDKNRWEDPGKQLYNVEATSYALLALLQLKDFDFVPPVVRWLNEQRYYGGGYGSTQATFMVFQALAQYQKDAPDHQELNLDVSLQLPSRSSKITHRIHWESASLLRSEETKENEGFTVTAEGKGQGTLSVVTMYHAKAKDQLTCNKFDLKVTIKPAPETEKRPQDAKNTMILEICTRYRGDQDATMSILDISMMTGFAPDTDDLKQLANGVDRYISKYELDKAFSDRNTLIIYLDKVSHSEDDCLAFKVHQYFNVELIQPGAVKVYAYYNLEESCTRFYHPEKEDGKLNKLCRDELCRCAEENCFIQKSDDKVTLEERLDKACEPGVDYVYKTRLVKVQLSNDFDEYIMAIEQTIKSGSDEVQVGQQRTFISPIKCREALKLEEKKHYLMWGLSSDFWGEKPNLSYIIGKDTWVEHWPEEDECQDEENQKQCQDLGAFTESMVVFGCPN
T1 sequence (P01024 23-1663 limits assumed): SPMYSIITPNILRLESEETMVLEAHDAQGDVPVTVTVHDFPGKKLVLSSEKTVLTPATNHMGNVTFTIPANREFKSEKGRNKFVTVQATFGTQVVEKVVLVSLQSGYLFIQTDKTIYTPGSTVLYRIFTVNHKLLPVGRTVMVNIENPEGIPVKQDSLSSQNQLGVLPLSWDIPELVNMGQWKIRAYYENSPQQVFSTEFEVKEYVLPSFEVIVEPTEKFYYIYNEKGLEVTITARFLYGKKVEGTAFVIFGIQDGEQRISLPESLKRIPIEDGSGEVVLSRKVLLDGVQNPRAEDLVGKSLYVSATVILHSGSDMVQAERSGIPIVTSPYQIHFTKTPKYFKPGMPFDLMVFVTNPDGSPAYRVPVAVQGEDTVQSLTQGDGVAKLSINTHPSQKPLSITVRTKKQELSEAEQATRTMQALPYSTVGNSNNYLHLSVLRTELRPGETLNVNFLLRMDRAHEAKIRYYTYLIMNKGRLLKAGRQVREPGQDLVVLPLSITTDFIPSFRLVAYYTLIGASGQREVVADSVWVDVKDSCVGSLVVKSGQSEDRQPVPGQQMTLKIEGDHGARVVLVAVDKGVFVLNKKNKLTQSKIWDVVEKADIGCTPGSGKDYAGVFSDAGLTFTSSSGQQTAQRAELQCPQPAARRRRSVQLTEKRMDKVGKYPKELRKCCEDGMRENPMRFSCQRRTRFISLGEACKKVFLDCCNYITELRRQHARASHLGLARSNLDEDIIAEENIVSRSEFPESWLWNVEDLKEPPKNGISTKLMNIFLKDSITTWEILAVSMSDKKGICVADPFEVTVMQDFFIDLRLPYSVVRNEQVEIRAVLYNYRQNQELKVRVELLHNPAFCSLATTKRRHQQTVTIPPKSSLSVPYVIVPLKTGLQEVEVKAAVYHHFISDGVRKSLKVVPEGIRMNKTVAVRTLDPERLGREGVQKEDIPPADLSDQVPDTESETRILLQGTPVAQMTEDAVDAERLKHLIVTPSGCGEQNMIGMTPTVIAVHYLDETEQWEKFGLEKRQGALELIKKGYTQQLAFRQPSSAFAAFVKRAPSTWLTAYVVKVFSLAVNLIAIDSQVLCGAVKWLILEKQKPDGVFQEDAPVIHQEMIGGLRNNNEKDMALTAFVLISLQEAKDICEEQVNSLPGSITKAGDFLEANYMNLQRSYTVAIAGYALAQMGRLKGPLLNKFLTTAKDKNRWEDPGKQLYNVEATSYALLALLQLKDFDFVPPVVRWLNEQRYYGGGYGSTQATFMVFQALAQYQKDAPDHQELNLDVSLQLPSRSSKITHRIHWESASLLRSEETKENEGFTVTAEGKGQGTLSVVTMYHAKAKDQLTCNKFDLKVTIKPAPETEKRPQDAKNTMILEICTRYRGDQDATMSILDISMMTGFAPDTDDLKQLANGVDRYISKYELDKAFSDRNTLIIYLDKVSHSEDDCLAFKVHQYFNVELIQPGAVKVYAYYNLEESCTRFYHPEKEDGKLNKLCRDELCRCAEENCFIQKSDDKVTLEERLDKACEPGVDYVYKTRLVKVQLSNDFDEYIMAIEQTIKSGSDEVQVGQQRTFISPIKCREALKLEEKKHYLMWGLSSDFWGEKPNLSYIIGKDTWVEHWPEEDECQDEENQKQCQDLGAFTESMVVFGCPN

B1: Comparative Compound A3 (antibody, human IgG1, kappa, V domains shown)
VH: QVQLVQSGAEVKKPGASVKVSCKASGYTFTDFYMDWVRQAPGQRLEWMGYIYPHNGGTTYNQQFTGRVTITVDKSASTAYMELSSLRSEDTAVYYCARRGGFDFDYWGQGTLVTVSS
VL: DIQMTQSPSSLSASVGDRVTITCKASENVDTYVSWYQQKPGKAPKLLIYGASNRYTGVPSRFSGSGSGTDFTFTISSLQPEDIATYHCGQSHSYPLTFGQGTKLEIKR
As for B1, in the assay with human complement C3 [1], the “IC50 (nM), Alternative Pathway, Hemolysis (rabbit erythrocytes, human serum)” value came to 207 nM; the “IC50 (nM), Alternative Pathway, MAC deposition (WEISLAB, human serum)” value worked out at 548 nM; the “IC50 (nM), Classical Pathway, Hemolysis (antibody-sensitized sheep erythrocytes, human serum)” value stood at 56 nM; the “IC50 (nM), Classical Pathway, MAC deposition (WEISLAB, human serum)” value was 56 nM. Moreover, the “IC50 (nM), Lectin Pathway, MAC deposition (WEISLAB, human serum)” value in the assay with human complement C3 [1] turned out to be 58 nM.

B2: Clone XIII (scFv)
scFv: MQLVLTQSPSASASLGASVKLTCTLSSAHKTYTIDWYQQQPEKCPRYLMQLKSEGSYTKGTGVPDRFSGSSSGAERYLTISSLQSEDEADYYCGTEGVGGYVFGGGTKLTVLGGGGGSGGGGSGGGGSGGGGSQVQVVESGGGSVQPGRSLRLSCAVSGFSLYNYAMNWVRQAPGKGLEWIGIINVGGGTNYASWAKGRFTISTDNSKNTVYLQMNSLRAEDTASYYCARAVGYHHARLDPWGCGTSVTVSS
B2 came in with a Kd in the assay with human complement C3 [2] of 0.116 nM. The Kd in the assay with human C3b came out at 0.11 nM. In addition, in the assay with human complement C3 [3], the “IC50, complement inhibition in the alternative pathway” value was 260 nM and the “IC50, complement inhibition in the classical pathway” value was 60 nM.

B3: Clone XII (scFv)
scFv: B2 scFv with E96D, G97Y, V98G
In the assay with human complement C3 [2], B3 registered a Kd of 4.7 nM. Moreover, in the assay with human C3b, binding was put at a Kd of 4.8 nM. Further, in the assay with human complement C3 [3], the “IC50, complement inhibition in the alternative pathway” value stood at 210 nM and the “IC50, complement inhibition in the classical pathway” value is 98 nM.

B4: Clone XIV (scFv)
scFv: B2 scFv with A237S
notes: also called Cone XIV
For the molecule B4, the Kd with human complement C3 [2] was found to be 0.129 nM. In the assay with human C3b, this molecule had a Kd of 0.116 nM. In the assay with human complement C3 [3], the “IC50, complement inhibition in the alternative pathway” value is 250 nM and the “IC50, complement inhibition in the classical pathway” value is 50 nM.

B5: Clone IV (scFv)
scFv: QSVKESGGRLVTPGTPLTLTCTVSGFSLYNYAMNWVRQAPGKGLEWIGIINTDGNTNYASWAKGRFTISTTSSTTVDLKITSPTTEDTATYFCPRAVGYHHHALDPWGPGTLVTVSSGGGGSGGGGSGGGGSGGGGASELVLTQSPSVSAALGASAKLTCTLSSAHKTYTIDWYQQQQGEAPRYLMQLKSDGSYTKGTGVPDRFSGSSSGADRYLIIPSVQADDEADYYCGTDYGGGYVFGGGTQLTVTG
As to B5, in the assay with human complement C3 [3], the “IC50, complement inhibition in the alternative pathway” value stood at 280 nM and the “IC50, complement inhibition in the classical pathway” value was 80 nM.

The record behind these values is patent US12344663 (CDR LIFE, dated 2025).
